In US20250179138:

System: ACP11 (human p40/murine p35 IL-12 fusion protein)

Chain of active MMP9 (Sigma catalog #SAE0078-50 or Enzo catalog BML-SE360) (chain, as listed by the source): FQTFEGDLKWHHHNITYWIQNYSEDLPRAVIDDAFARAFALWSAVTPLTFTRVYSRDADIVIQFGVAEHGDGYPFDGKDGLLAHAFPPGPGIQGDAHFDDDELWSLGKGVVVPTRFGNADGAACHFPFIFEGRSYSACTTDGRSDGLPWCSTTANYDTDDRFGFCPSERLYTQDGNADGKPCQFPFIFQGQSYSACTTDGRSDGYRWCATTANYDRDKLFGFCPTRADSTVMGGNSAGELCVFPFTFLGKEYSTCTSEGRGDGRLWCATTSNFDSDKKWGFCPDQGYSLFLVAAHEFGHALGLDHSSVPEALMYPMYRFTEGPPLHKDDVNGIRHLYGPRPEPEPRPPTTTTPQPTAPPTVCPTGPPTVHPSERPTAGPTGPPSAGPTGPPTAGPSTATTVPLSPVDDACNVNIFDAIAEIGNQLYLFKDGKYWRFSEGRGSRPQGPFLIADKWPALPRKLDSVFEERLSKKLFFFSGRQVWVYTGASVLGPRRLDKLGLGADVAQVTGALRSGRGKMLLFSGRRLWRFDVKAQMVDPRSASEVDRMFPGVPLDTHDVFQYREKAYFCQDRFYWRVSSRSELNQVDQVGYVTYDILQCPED

## active MMP9 (Sigma catalog #SAE0078-50 or Enzo catalog BML-SE360)
  protein cleavage assay, extent of cleavage monitored by SDS PAGE: the ACP11 fusion protein was cleaved by MMP9 protease
